What all share (assay): EMSA
(In general: A gel shift assay detects complexes by their altered migration in electrophoresis.)

In data set [1] the target is GST-N-γtubulin1-333 (human, UniProt P23258 1-333).
Data set [2] deals with GST-γ-tubulin (human, UniProt P23258 1-451).
Data set [3] has as its target GST-γ-tubulin;His-E2F1 (human;human, UniProt P23258;Q01094 1-451;1-437, |).

Sequence of GST-N-γtubulin1-333 (P23258 1-333): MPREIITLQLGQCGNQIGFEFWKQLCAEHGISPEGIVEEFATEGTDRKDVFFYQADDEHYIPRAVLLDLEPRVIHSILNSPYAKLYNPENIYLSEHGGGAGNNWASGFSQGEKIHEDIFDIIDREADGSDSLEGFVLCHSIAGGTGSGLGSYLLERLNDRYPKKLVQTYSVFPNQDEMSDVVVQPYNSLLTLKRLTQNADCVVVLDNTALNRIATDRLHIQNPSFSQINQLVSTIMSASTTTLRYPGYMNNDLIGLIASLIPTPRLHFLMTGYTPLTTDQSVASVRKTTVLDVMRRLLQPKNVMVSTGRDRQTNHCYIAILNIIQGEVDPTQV
Sequence of GST-γ-tubulin (P23258 whole entry): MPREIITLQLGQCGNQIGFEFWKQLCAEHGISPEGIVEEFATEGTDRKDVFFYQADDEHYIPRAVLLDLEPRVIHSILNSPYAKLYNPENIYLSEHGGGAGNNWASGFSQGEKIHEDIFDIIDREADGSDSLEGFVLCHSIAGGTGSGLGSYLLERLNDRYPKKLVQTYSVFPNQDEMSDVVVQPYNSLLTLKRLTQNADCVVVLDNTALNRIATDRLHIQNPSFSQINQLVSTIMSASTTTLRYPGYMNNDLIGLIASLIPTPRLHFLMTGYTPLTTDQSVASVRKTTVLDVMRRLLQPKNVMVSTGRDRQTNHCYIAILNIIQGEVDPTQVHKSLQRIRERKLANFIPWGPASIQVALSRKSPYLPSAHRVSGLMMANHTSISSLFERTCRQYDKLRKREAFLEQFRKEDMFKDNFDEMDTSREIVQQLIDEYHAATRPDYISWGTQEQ
Sequence of GST-γ-tubulin;His-E2F1 (P23258 whole entry, chain 1 of 2): as the sequence (P23258 whole entry) above
Sequence of GST-γ-tubulin;His-E2F1 (Q01094 whole entry, chain 2 of 2): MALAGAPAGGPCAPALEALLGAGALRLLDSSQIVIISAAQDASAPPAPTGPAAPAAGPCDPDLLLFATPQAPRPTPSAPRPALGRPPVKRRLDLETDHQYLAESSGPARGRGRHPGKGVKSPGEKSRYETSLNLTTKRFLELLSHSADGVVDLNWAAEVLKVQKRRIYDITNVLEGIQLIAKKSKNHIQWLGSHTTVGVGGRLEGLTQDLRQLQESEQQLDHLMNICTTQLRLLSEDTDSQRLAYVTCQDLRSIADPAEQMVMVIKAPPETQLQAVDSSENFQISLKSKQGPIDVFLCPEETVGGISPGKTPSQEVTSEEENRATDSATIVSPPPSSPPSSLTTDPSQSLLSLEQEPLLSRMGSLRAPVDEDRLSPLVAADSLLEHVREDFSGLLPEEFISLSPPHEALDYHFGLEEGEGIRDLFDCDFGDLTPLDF

B1: DHFR promoter E2F site, wild type (dsDNA)
DNA 1: AGCTTCTAGTGCAATTTCGCGCCAAACTTGG
DNA 2: AATTCCAAGTTTGGCGCGAAATTGCACTAGA
Consider B1, for which the binding result is “no binding” in data set [1], “binds” in data set [2] and “binds” in data set [3].

For the origin of these results see PMC3205837.
